Reference: paper PMC7067766, “A receptor for the complement regulator factor H increases transmission of trypanosomes to tsetse flies” (Nature Communications, 2020)

B1: human FH domains 4-5-6 (residues 207-387) (domain or fragment)
chain: not shown
notes: complement factor H, human, domains 4-5-6 (residues 207-387); pDest12; CD33 signal peptide, ORF, C-terminal GSGSGS linker, AviTag and 10xHis; also called human domains 4-5-6; source: G22 CHO cells, secreted, purified (Ni-NTA)
B2: mouse FH domains 4-5-6 (residues 207-387) (domain or fragment, UniProt P06909 207-387, looked up)
chain: EILCTPPRVENGDGINVKPVYKENERYHYKCKHGYVPKERGDAVCTGSGWSSQPFCEEKRCSPPYILNGIYTPHRIIHRSDDEIRYECNYGFYPVTGSTVSKCTPTGWIPVPRCTLKPCEFPQFKYGRLYYEESLRPNFPVSIGNKYSYKCDNGFSPPSGYSWDYLRCTAQGWEPEVPCVR
notes: complement factor H, mouse, domains 4-5-6 (residues 207-387); pDest12; CD33 signal peptide, ORF, C-terminal GSGSGS linker, AviTag and 10xHis; also called mouse domains 4-5-6; source: G22 CHO cells, secreted, purified (Ni-NTA)
B3: bovine FH domains 4-5-6 (residues 207-385) (domain or fragment, UniProt Q28085 207-385, looked up)
chain: EIFCKTPVILNGQAVLPKATYKANERVQYRCAAGFEYGQRGDTICTKSGWTPAPTCIEITCDPPRIPNGVYRPELSKYRGQDKITYECKKGFFPEIRGTDATCTRDGWVPVPRCAWKPCSYPVIKHGRLYYSYRGYFPARVNQQFVYSCDHHFVPPSQRSWDHLTCTAEGWSPEEPCLR
notes: complement factor H, bovine, domains 4-5-6 (residues 207-385); pDest12; CD33 signal peptide, ORF, C-terminal GSGSGS linker, AviTag and 10xHis; source: G22 CHO cells, secreted, purified (Ni-NTA)
B4: bovine FH domain 5 (residues 264-323), as used in SPR (domain or fragment, UniProt Q28085 264-323, looked up)
chain: EITCDPPRIPNGVYRPELSKYRGQDKITYECKKGFFPEIRGTDATCTRDGWVPVPRCAWK
notes: complement factor H, bovine, domain 5 (residues 264-323); N-terminal tags, a TEV site and an extra serine-glycine linker before domain 5; also called domain 5 alone; source: G22 CHO cells, secreted, purified (Ni-NTA)
B5: C-terminally biotinylated FHR (residues 25-249, AviTag) (receptor)
chain: NDNLEAELEQTKALCEVAKQLRKLPLLTEERRFEAVGALEESKKAAKEGKKAAKRAEAGAVGGTSEQQQAAKRAREAATVAYEASVRAEAAAMEVKRFARALDSFESEYESVFSGLLRGAAEHGGNETIKQLAKECATAVADDVTPEALTRAAHNLRGLYMQDFAEEYLQEANEAANKLEELQKATAETVRAADAADDAKSEAQEEAAQFPEIDDDDSDEDKEDE
modifications: biotin on the C-terminal AviTag
notes: T. brucei FHR, Tb927.5.4020, residues 25-249, synthetic gene optimized for E. coli in pET15b; TEV site after the His tag; GSGSGSS linker between FHR and the AviTag; also called FHR WT; WT FHR; source: E. coli BL21(DE3), purified (Ni-NTA), biotinylated with BirA; not shown: His6, N-terminal, cleaved; AviTag, C-terminal, kept

What was measured:
Conditions in all cases: both partners purified
[1] = target: B5; experiment: SPR; biotinylated FHR or mutant 2 on a streptavidin chip, mouse or human FH domains 4-5-6 flowed over; 20 °C, 10 mM HEPES, 150 mM NaCl, 0.005% Tween-20 pH 7.5; steady-state analysis
[2] = target: B5; experiment: SPR; biotinylated FHR or mutant on a streptavidin chip (Biacore T-100/T-200), FH proteins flowed over in twofold dilutions; 20 °C, 10 mM HEPES, 150 mM NaCl, 0.005% Tween-20 pH 7.5; kinetic fit: two-state model (bovine FH) or 1:1 model (bovine domains 4-5-6 and 5)
[3] = target: T1, bovine complement factor H from serum (bovine (endogenous in bovine serum), UniProt Q28085 19-1236); experiment: as above
T1 construct: complement factor H, bovine, native serum protein of 145 kDa; also called FH; bovine FH; source: endogenous, bovine serum (Sigma-Aldrich); purified from adult bovine serum (FHR-agarose, eluted with glycine-HCl pH 2.5)
T1 sequence: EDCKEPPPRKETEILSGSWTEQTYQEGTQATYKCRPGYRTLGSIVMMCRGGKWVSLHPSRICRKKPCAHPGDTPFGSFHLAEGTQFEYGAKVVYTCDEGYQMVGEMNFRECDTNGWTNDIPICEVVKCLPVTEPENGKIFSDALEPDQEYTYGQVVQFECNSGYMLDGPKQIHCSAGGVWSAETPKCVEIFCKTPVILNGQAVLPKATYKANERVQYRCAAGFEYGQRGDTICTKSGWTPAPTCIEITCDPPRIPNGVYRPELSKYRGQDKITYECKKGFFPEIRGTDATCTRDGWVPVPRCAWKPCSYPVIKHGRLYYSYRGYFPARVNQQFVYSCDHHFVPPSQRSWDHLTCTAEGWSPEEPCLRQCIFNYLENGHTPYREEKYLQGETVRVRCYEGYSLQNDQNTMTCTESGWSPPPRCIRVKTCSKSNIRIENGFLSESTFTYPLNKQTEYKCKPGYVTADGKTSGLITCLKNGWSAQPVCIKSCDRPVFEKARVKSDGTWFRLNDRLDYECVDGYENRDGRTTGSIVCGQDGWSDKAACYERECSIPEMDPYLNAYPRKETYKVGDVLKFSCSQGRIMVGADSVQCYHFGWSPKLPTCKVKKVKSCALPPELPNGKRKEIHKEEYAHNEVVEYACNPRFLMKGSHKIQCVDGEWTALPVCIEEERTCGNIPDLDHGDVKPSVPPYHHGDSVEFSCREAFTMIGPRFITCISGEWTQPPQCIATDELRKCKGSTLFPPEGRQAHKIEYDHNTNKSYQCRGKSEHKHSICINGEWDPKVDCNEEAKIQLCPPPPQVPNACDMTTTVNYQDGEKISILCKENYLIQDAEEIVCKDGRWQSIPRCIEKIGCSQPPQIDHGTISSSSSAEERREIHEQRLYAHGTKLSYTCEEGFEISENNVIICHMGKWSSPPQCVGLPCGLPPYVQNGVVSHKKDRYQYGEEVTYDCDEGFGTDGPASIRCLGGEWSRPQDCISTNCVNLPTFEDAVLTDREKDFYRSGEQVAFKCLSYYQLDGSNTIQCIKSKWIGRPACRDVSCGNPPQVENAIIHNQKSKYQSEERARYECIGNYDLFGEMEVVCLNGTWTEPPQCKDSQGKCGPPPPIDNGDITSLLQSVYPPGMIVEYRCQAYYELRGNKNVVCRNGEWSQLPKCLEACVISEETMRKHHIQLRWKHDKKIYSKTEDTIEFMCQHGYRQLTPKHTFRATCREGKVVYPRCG

[4] = target: T2, recombinant bovine FH, complete (residues 18-1236) (bovine, UniProt Q28085 18-1236); experiment: as above
T2 construct: complement factor H, bovine, complete (residues 18-1236); pDest12; CD33 signal peptide, then 10xHis, AviTag, GSGSGS linker and a TEV site before the ORF; also called full-length bovine FH; recombinant FH; source: G22 CHO cells, secreted, purified (Ni-NTA)
T2 sequence (looked up): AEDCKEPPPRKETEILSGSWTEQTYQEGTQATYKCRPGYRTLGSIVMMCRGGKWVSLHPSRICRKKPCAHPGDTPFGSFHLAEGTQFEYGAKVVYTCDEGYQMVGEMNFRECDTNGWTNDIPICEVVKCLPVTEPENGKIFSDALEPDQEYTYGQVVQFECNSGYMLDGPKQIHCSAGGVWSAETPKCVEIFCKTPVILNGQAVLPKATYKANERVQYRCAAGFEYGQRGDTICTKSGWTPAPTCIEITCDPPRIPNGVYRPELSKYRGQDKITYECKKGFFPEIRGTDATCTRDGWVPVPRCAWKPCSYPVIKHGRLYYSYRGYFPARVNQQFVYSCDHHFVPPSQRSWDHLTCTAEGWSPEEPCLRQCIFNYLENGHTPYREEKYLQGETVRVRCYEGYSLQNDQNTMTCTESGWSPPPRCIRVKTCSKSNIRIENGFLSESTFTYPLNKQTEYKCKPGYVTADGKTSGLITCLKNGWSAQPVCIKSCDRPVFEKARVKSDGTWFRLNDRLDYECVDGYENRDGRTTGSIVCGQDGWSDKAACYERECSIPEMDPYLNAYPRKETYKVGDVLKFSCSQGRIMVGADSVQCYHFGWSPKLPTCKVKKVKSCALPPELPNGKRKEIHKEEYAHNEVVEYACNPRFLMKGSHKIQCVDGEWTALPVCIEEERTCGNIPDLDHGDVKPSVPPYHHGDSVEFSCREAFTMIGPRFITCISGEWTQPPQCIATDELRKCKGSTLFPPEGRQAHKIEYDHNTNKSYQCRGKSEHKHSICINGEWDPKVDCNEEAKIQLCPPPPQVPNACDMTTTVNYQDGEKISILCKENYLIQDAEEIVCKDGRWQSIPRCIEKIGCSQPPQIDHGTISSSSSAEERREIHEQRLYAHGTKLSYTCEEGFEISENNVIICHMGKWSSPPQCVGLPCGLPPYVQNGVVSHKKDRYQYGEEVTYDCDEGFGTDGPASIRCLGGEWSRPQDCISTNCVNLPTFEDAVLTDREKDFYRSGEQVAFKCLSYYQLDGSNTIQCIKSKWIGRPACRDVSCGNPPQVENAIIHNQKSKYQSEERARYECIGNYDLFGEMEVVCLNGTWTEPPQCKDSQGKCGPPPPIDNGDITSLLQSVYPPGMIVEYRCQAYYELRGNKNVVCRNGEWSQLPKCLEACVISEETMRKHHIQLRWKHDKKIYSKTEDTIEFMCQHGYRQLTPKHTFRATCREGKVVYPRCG

Binder	Kd [1]	Kd [2]	further results
B1	8700 nM		
B2	12000 nM		
B3		167 nM	
B4		562 nM	
B5			Kd [3]: 153 nM; Kd [4]: 114 nM
